Laboratory results reported in patent publication US9657081B2, “Inhibiting peptides derived from triggering receptor expressed on myeloid cells-1 (TREM-1) TREM-like transcript 1 (TLT-1) for treatment of cardiovascular diseases” (INSERM (Institut National de la Sante et de la Recherche …, priority 2013, dated 2017).

How the values were obtained:
Assay type in all cases: in vivo
TREM-1 [1] = assay: Rat model of sepsis-induced cardiac dysfunction, intrinsic cardiac function by Millar catheter; set-up: dpdtmax/Ved / PRSW: unit not given beside the values; FEVG / ESPVR: unit not given here
From the text: TREM-1- and TLT-1-derived peptides administration during rat model of sepsis-induced cardiac dysfunction is associated with an increase of intrinsic cardiac function measured by Millar catheter (FEVG, ESPVR, dpdtmax/Ved, PRSW).
Rats were anaesthetized with isoflurane and a 2 F high-fidelity micro-manometer catheter (SPR-407, Millar Institute, Houston, Tex., USA) was inserted into the LV via the right carotid artery. The Millar catheter was connected to a Harvard Data Acquisition System interfaced with a PC with the AcqKnowledge III software (ACQ 3.2).

TREM-1 [2] = target: T1, TREM-1 (Mus musculus, UniProt Q9JKE2); assay: Mouse myocardial infarction, leukocyte recruitment and mobilization (flow cytometry), plasma chemokines
T1 construct: endogenous in cells; host or cells: living mice (C57BL, Balb/c, ApoE-/-), in vivo
T1 sequence (Q9JKE2 21-230): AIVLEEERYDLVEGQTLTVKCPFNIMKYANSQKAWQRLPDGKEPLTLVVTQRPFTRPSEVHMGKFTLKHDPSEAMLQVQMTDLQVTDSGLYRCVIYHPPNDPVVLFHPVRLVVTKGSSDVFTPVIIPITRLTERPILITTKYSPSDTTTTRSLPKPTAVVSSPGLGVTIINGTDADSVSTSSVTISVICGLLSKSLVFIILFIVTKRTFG
Protocol: (§1) All procedures were performed on mice male C57BL/C ranging in age from 6-8 weeks. Mice were anesthetized by an intraperitoneal injection of xylazine (60 mg/kg) and fixed in supine position. The trachea was intubated and ventilated (the tidal volume was 200 μl/25 g and the respiratory rate was 120 breaths/min). After a left thoracotomy, the left coronary artery was identified and ligated with an 8-0 prolene surgical suture at 1.0 mm distal from tip of the left auricle. LAD occlusion was confirmed by a change in myocardial color from red to white in the ischemia area (Left ventricle). The chest was closed and the skin was sutured with 6-0 silk. The animals returned to their cage where they are supervised until their complete recovery.
Mice were monitored after surgery for mortality. Mice were randomized to receive or not peptides (daily ip injection for 5 days, 5 mg/kg) and monitored for survival. […] A median sternotomy was performed followed by excision of the heart and dissection of ischemic and non-ischemic areas. ARN extraction and protein extraction were then performed for RT-PCR, WB, immunohistology, and ELISA analysis.
To prepare single-cell suspensions from infarct tissue, hearts were harvested; minced with fine scissors; placed into a cocktail of collagenase I, collagenase XI, DNase I, and hyaluronidase (Sigma-Aldrich); and shaken at 37° C. for 1 h. Cells were then triturated through and centrifuged (15 min, 500 g, 4° C.).
Spleens were removed, triturated in HBSS at 4° C. with the end of a 3-ml syringe, and filtered through 70-μm nylon filters (BD). The cell suspension was centrifuged at 300 g for 10 min at 4° C. Red blood cells were lysed (Red Blood Cells Lysis solution, Miltenyi), and the splenocytes were washed with HBSS and resuspended in HBSS supplemented with 0.2% (wt/vol) BSA. Peripheral blood was drawn via cardiac puncture with citrate solution as anticoagulant, and red blood cells were lysed. Finally, bone-marrow single-cell suspensions were obtained from femurs after flushing them with 1 mL HBSS, filtering through 70-μm nylon filters and centrifugation at 300 g for 10 min at 4° C. Total viable cell numbers were determined from aliquots using a hemacytometer with Trypan blue (BioRad).
Cell suspensions were incubated in a cocktail of mAbs against CD4^+ or CD8^+ T cells (CD4- or CD8-APC, CD3ε-PE, CD45-FITC), B cells (CD19-PE, CD45-FITC), granulocytes (CD45-FITC, Ly-6G-APC), monocytes subsets (CD115-PE, Ly-6C-APC, CD45-FITC), all antibodies from Miltenyi Biotech. Reported cell numbers were calculated as the product of total living cells (total viable leukocytes per ml) and percentage of cells within selected gate, and reported per mg of tissue (heart), per organ (femur and spleen), or per mL (blood). Data were acquired on a FC500 cytometer (Beckman Coulter).

TREM-1 [3] = target: T1, TREM-1; assay: Mouse model of myocardial infarction, survival; details: 100 μg daily for 5 days i.p., beginning 60 min after ligation; Log-Rank p<0.01
Protocol: Adult male Balb/c mice (20-23 g) were subjected to myocardial ischemia and were randomly grouped (n=10-15 per group) to receive repeated TREM-1- and TLT-1-derived peptides (100 μg in 0.2 mL NaCl 0.9% once a day for 5 days), scrambled-LR12 (100 μg in 0.2 mL NaCl 0.9% once a day for 5 days), or 10 μg anti-TREM-1 mAb in 0.2 mL NaCl 0.9% i.p. injections. Survival was monitored over 1 wk and analyzed by Log Rank test. (There were no deaths after the 5th day). Data are representative of at least 15 different experiments.
as §1, with “The animals returned to their cage where they are supervised until their complete recovery.” left out
Mice were monitored after surgery for mortality. Mice were randomized to receive or not peptides (daily ip injection for 5 days, 5 mg/kg) and monitored for survival. […]

LQEEDAGEYGCM (listed as Homo sapiens) [TLT1-LR12]
ESPVR (TREM-1 [1]): 2.7 ± 0.1 | FEVG (TREM-1 [1]): 77.2 ± 9.2 | PRSW (TREM-1 [1]): 143 ± 7 | dpdtmax/Ved (TREM-1 [1]): 158 ± 18 | peripheral blood neutrophilia (TREM-1 [2]; 72 hours after MI): not observed | B- and CD8+-lymphocyte infiltration of infarcted myocardium (TREM-1 [2]; mouse MI): reduced | CD4+-cells recruitment to infarcted myocardium (TREM-1 [2]; mouse MI): increased | PMN infiltration of infarcted myocardium (TREM-1 [2]; mouse MI): blocked | survival after permanent coronary artery ligation (TREM-1 [3]): All but 1 LR12-treated animals survived
